Measurements as given in paper doi:10.1101/2022.11.20.517165.

Experiments:
[1] = biological target: Toc90 (Chlamydomonas reinhardtii); experiment: cryo-EM structure
[2] = biological target: Toc75 (Chlamydomonas reinhardtii); experiment: cryo-EM structure

| Molecule | stoichiometry N [1] | stoichiometry N [2] |
| --- | --- | --- |
| Toc75 (natural protein) | 1 |  |
| Toc34 (natural protein) MAQPPRPAEEYDDDVQEDEDELKEGELDDDESHEAASEGGEAAAGDEEAEDDEQDEEDGDEDSQPWAGLNRLPERDDMLDILNELRAEGRKQLTVLLLGKSSVGKSSLINSLLGEAVVRVQAFKLQADTDITTTVVRQVAVGNSEVDGFRLKLIDTCGLEDPEAGDTVNLGALSKIAEDVRGVGIDVVLYCDRLDLYRVDPLDKAIIDAISSTFGRGIWRRTVVALTHANLVQTPPGTDYDSFVNGRVRLIRGAVRGPLFFRPSLPVALVENSETCPVSSESGFRVLPDGEPWLVALVSQLVDMAAARRRPYKYHPRLSSKPSHRFRWLLPVAIAAEVLFYRRFLHPRLDDNQRRVEREEERVWALRGQQRRALGLHRPHRPDKDAAWRLEQMYDDD |  | 1 |
